Target: T1, HLA-A*0201 expressed on T2 cells (human)
T1 construct: also called HLA-A2
Assay: cell-based peptide binding assay on T2 cells

binding result: binds
Binder: SLLACALEV (also called Rb peptide) [Rb485-493 (Rb7) peptide]
